{"source": "paper PMC4382515", "substrate": "N[C@@H](CCC(=O)O)C(=O)O", "assay": "purified protein", "details": "pH 4.6; 25.0 °C", "data": [{"protein": "EcGadB (Escherichia coli K-12) (protein) MDKKQVTDLRSELLDSRFGAKSISTIAESKRFPLHEMRDDVAFQIINDELYLDGNARQNLATFCQTWDDENVHKLMDLSINKNWIDKEEYPQSAAIDLRCVNMVADLWHAPAPKNGQAVGTNTIGSSEACMLGGMAMKWRWRKRMEAAGKPTDKPNLVCGPVQICWHKFARYWDVELREIPMRPGQLFMDPKRMIEACDENTIGVVPTFGVTYTGNYEFPQPLHDALDKFQADTGIDIDMHIDAASGGFLAPFVAPDIVWDFRLPRVKSISASGHKFGLAPLGCGWVIWRDEEALPQELVFNVDYLGGQIGTFAINFSRPAGQVIAQYYEFLRLGREGYTKVQNASYQVAAYLADEIAKLGPYEFICTGRPDEGIPAVCFKLKDGEDPGYTLYDLSERLRLRGWQVPAFTLGGEATDIVVMRIMCRRGFEMDFAELLLEDYKASLKYLSDHPKLQGIAQQNSFKHT", "values": [{"measurement": "Km", "result": "1.10 ± 0.18", "unit": "mM"}, {"measurement": "kcat/Km", "result": "13900 ± 2830", "unit": "M⁻¹ s⁻¹"}]}]}
